Experimental data: patent US20210122826A1 (MIT, published 2021)

T1: Human KLRG1 (human, UniProt Q96E93 1-195)
T1 construct: also called hKLRG1
T1 sequence: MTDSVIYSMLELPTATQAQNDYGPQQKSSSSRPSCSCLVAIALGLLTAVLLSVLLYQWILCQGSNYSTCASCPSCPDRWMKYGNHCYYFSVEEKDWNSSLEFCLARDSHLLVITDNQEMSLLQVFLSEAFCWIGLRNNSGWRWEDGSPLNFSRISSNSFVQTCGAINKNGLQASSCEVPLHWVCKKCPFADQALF

T2: Human Clec10A (human, UniProt Q8IUN9 1-316)
T2 construct: also called hClec10A
T2 sequence: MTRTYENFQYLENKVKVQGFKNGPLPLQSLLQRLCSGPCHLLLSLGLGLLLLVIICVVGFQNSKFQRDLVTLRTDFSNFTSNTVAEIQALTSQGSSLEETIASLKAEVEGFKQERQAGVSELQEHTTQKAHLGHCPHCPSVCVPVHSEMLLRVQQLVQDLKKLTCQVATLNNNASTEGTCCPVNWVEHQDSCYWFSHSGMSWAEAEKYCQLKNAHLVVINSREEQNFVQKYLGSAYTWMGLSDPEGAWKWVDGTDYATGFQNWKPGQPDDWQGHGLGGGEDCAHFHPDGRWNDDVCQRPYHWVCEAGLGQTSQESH

T3: Human KLRF2 (human, UniProt D3W0D1 1-207)
T3 construct: also called hKLRF2
T3 sequence: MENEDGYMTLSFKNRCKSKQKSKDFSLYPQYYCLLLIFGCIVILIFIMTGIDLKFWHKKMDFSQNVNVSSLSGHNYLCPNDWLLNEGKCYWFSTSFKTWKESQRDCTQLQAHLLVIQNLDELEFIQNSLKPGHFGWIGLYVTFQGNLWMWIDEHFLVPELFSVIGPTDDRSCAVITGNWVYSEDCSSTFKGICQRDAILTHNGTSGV

T4: Human Clec4E (human, UniProt Q9ULY5 1-219)
T4 construct: also called hClec4E
T4 sequence: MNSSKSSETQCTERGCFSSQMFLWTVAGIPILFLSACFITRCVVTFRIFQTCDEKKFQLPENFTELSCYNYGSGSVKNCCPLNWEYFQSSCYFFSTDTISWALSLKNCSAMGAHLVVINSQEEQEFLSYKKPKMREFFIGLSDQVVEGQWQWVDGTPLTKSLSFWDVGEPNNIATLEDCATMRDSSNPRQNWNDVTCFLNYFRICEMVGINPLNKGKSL

T5: Human CD209 (human, UniProt Q9NNX6 1-404)
T5 construct: also called hCD209
T5 sequence: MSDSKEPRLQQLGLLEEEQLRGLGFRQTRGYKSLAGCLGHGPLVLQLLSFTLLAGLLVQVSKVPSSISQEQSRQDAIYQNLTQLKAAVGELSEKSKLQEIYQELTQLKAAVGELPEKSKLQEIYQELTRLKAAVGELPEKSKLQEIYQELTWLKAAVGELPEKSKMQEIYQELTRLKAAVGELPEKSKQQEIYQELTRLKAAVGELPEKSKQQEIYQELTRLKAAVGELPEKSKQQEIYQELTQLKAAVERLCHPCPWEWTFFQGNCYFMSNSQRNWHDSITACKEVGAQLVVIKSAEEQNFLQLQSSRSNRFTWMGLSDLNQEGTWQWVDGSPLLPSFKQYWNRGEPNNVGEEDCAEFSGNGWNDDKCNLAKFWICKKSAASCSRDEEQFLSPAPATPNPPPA

T6: Human Clec12B (human, UniProt Q2HXU8 1-276)
T6 construct: also called hClec12B
T6 sequence: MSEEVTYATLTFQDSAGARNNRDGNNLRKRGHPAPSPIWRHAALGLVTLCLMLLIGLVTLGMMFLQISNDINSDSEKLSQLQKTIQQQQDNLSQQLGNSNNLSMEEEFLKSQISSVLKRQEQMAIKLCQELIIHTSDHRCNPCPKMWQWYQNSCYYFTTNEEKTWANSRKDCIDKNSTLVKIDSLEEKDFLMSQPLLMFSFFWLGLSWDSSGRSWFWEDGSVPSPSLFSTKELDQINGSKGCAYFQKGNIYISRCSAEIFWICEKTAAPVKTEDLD

T7: Human CD94 (human, UniProt Q13241 1-179)
T7 construct: also called hCD94
T7 sequence: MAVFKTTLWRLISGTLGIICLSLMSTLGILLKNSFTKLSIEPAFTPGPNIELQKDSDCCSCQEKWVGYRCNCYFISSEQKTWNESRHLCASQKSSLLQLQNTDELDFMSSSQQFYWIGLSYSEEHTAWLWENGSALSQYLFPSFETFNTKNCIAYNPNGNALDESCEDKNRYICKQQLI

T8: Human Clec5A (human, UniProt Q9NY25 1-188)
T8 construct: also called hClec5A
T8 sequence: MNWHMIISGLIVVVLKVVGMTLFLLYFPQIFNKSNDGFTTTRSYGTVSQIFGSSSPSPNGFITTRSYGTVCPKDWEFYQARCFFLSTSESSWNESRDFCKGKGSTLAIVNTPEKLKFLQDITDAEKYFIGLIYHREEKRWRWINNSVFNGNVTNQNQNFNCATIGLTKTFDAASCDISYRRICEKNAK

T9: Human KLRF1 (human, UniProt Q9NZS2 1-231)
T9 construct: also called hKLRF1
T9 sequence: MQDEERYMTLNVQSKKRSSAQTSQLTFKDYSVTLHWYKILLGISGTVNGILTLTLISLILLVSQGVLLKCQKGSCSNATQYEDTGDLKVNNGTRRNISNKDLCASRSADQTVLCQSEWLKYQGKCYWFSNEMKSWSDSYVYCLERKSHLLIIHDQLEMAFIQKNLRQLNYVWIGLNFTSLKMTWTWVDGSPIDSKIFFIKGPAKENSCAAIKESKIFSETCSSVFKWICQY

T10: Human Clec7A (human, UniProt Q9BXN2 1-247)
T10 construct: also called hClec7A
T10 sequence: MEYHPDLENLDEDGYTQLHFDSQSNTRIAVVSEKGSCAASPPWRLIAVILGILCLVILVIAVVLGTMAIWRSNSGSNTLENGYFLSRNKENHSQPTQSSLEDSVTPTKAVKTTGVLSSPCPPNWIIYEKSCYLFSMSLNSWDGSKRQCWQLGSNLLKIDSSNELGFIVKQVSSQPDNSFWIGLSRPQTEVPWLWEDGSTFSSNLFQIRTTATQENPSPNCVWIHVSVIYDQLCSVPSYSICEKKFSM


Columns and labels:
Experiment in all cases: flow, Jurkat
Human KLRG1 = target: T1, Human KLRG1
Human Clec10A = target: T2, Human Clec10A
Human OLR1 = target: T11, Human OLR1 (human, UniProt P78380 1-273)
T11 construct: also called hOLR1

Human KLRF2 = target: T3, Human KLRF2
Human Clec4E = target: T4, Human Clec4E
Human CD209 = target: T5, Human CD209
Human Clec12B = target: T6, Human Clec12B
Human CD94 = target: T7, Human CD94
Human Clec5A = target: T8, Human Clec5A
Human KLRF1 = target: T9, Human KLRF1
Human Clec7A = target: T10, Human Clec7A
Human Clec9A = target: T12, Human Clec9A (human, UniProt Q6UXN8 1-241)
T12 construct: also called hClec9A
T12 sequence (Q6UXN8 whole entry): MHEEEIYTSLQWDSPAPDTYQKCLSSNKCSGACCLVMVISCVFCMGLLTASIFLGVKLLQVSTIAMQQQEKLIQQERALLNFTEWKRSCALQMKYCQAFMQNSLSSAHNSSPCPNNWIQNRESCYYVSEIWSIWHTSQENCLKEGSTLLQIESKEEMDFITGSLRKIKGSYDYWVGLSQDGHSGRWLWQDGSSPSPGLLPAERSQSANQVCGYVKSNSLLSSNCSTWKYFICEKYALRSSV

Binder | binding result (Human KLRG1) | binding result (Human Clec10A) | binding result (Human OLR1) | binding result (Human KLRF2) | binding result (Human Clec4E) | binding result (Human CD209) | binding result (Human Clec12B) | binding result (Human CD94) | binding result (Human Clec5A) | binding result (Human KLRF1) | binding result (Human Clec7A) | binding result (Human Clec9A)
KM12.2.3 (antibody, human IgG1, V domains shown) VH: EVQLVESGGGLVQPGGSLRLSCAASGFTFSSYAMSWIRQAPGKGLEWVSAISGSGGSIYYADSVKGRFTISRDNSKNTLYLQMNSLRAEDTAVYYCARGYSDSYFYGPYYTFDYWGQGTLVTVSS VL: DIQMTQSPSSLSASVGDRVTITCRASQGISSYLNWYQQKPGKAPKLLIYAASSLQSGVSSRFSGSGSGTDFTLTISSLQPEDFATYYCQQSYNTPLTFGQGTKVEIK | no binding (tested: 100 nM) | no binding (tested: 100 nM) | no binding (tested: 100 nM) | no binding (tested: 100 nM) | no binding (tested: 100 nM) | no binding (tested: 100 nM) | no binding (tested: 100 nM) | no binding (tested: 100 nM) | no binding (tested: 100 nM) | no binding (tested: 100 nM) | no binding (tested: 100 nM) | no binding (tested: 100 nM)
KM12.4.7 (antibody, V domains shown) VH: EVQLVESGGGLVQPGGSLRLPCAASGFTFSSYAMSWIRQAPGKGLEWVSAISGSGGSIYYADSVKGRFTISRDNSKNTLYLQMDSLRAEDTAVYYCARGYSDSYFYGPYYTFDYWGQGTLVTVSS VL: not shown | no binding (tested: 100 nM) | no binding (tested: 100 nM) | no binding (tested: 100 nM) | no binding (tested: 100 nM) | no binding (tested: 100 nM) | no binding (tested: 100 nM) | no binding (tested: 100 nM) | no binding (tested: 100 nM) | no binding (tested: 100 nM) | no binding (tested: 100 nM) | no binding (tested: 100 nM) | no binding (tested: 100 nM)
anti-CD161 KW17 (antibody, V domains shown, Human, lambda light chain; scFv-Fc or full IgG not clear; also called KW17-Fc) VH: not shown VL: QSVLTQPPSVSGAPGQRVTISCTGSSSNIGAGYDVHWYQQLPGTAPKLLIYGNSNRPSGVPDRFSGSKSGTSASLAITGLQAEDEADYYCQSYDSSHTVFGGGTQLTVL | no binding (tested: 100 nM) | no binding (tested: 100 nM) | no binding (tested: 100 nM) | no binding (tested: 100 nM) | no binding (tested: 100 nM) | no binding (tested: 100 nM) | no binding (tested: 100 nM) | no binding (tested: 100 nM) | no binding (tested: 100 nM) | no binding (tested: 100 nM) | no binding (tested: 100 nM) | no binding (tested: 100 nM)

More lines, now with the values ahead:

binding result (Human KLRG1) | binding result (Human Clec10A) | binding result (Human OLR1) | binding result (Human KLRF2) | binding result (Human Clec4E) | binding result (Human CD209) | binding result (Human Clec12B) | binding result (Human CD94) | binding result (Human Clec5A) | binding result (Human KLRF1) | binding result (Human Clec7A) | binding result (Human Clec9A) | Binder
no binding (tested: 100 nM) | no binding (tested: 100 nM) | no binding (tested: 100 nM) | no binding (tested: 100 nM) | no binding (tested: 100 nM) | no binding (tested: 100 nM) | no binding (tested: 100 nM) | no binding (tested: 100 nM) | no binding (tested: 100 nM) | no binding (tested: 100 nM) | no binding (tested: 100 nM) | no binding (tested: 100 nM) | KW9.3.3 (antibody, V domains shown) VH: EVQLVESGGGLVQPGGSLRLSCAASGFTFSSYAMSWVRQAPGKGLEWVSAISGSGGRTYYADSVKGRFTISRDNSKNTLYLQMNSLRAEDTAMYYCARGPGYMYLYGDSFFEYWGQGTLVTVSS VL: DIQMAQSPSSLSASVGDRVTITCRASQGISSYLNWYQQKPGKAPKLLIYAASSLQSGVPSRFSGSGYGTDFTLTISSLQPEDFATYYCQQSYSTPLTFGQGTKVEIK
no binding (tested: 100 nM) | no binding (tested: 100 nM) | no binding (tested: 100 nM) | no binding (tested: 100 nM) | no binding (tested: 100 nM) | no binding (tested: 100 nM) | no binding (tested: 100 nM) | no binding (tested: 100 nM) | no binding (tested: 100 nM) | no binding (tested: 100 nM) | no binding (tested: 100 nM) | no binding (tested: 100 nM) | KW17.3.4 (antibody, V domains shown) VH: not shown VL: QSVLTQPPSVSGAPGQRVTISCTGSSSNIGAGYDVHWYQQLPGTAPKLLIYGNSNRPSGVPDRFSGSQSGTSASLAITGLQAEDEADYYCQSYNSGHTVFGGGTQLTVL
